From patent publication US20230348572A1
Where two headings read alike, the source gives them in different places.

Key:
[1] = molecular target: RBD-6H (amino acid 340-538; NITN.GPKK), biotinylated (SARS-CoV-2) (UniProt P0DTC2)
[2] = molecular target: RBD-6H (amino acid 340-538; NITN.GPKK), biotinylated (SARS-CoV-2) (UniProt P0DTC2); remark: listed apart in the source
[3] = molecular target: RBD (amino acids 340-538 NITN.GPKK) expressed on the surface of MDCK-SIAT1 cells (SARS-CoV-2) (UniProt P0DTC2)

| Substance | IC50 [1] [µM] | IC50 [2] [µM] | IC50 [3] [µM] |
| --- | --- | --- | --- |
| CR3022-Fc (antibody) | 0.803 | – | – |
| H11-H4-Fc (Fc fusion) | – | 0.061 | 0.034 |
| VHH72-Fc (Fc fusion) | – | 0.262 | 0.033 |
